Laboratory results: the DeepSol protein solubility set

Experiment: soluble on expression in E. coli; label from the status in PepcDB or PDB records
For “MATTAQKIKEVEDEMAKTQKNKATAKHLGMLKAKLAKLKRELITPTGGGGGGGLGFDVARTGIGTVGFIGFPSVGKSTLMTQLTGTRSEAAAYEFTTLTTVPGVLQYNGAKIQILDLPGIIEGAKDGRGRGKQVITVARTCNLIFIVLDVLKPMSHKRIIEEELEGFGIRLNKEPPNIVFKKKERGGINITNTVPLTHIDLDEIRAVCSEYRVNSADIAFRCDATIDDLIDVLEGNRVYIPALYVLNKIDSISIEELDLIDRIPNAVPICGNRGWNIDELKETMWDYLNLVRVYTRPRGLEPDYSEPVILRTGHSTVEDFCNNIHSSIKSQFKHAYVWGKSVPYPGMRVGLSHVLLDEDVVTIVKK”, the “soluble on expression in E. coli” value was “not soluble”. For “MGSDKIHHHHHHMQGIQQSLPLAVVRGEPVRELPADLFIPPEALEVFLEAFEGPLDLLLYLIRKQKLDVIELPLTLIAAQYLEYIRLLTDARIELAADYLVMAATLAEIKSRLLLPKMAVEDDEEEDPRVRLIKQLKAYESIREAAFKLDELPRLERDVHQARAQAAPGLKPEVIPPDVSLKELALAFAEVLKRASAFEHHQVKKEVLSTRERMSEILAKLDHEHFTPFTALFSPEEGRGGVVVSFLALMELVKETLVELYQAEPLSGIYVKAT”, the “soluble on expression in E. coli” value was “not soluble”. For “MAHHHHHHMNSTLVHDLQQFRYVTAFTNPLPWPHVRRVSIPGLRHEAPDLPFMANLISALSDCDVSLHKIHEHNDTDILQLVQVLQACLQFSLWSQNILKEKLLEVQATHVAKGVSAQQLENLEKRYHALEGEMAALHKDRGMLSLGTANLRTSLAQMEKTIKRQERQLQQERGRNAQLVAKLEKALCARAVAAPLMSAPRLPPPRESQQRPAGNRHASAPTHRTTKATTVYDSSRLPTDNADAHRDSIASLTSDTSYGDSCLSAEVAARTHSHVPQPCDSLDPPPPPFLDWRTLVRYIIHEEQRASVWASNHASPTAARATADERGIASKEELMPAAQHPSKPAAALPAAATQRVTEAQLDSFFAGLTAGVTTEVVAYSRAVAARVEEMVRAATQQWIQETAEAQQALMAQVQAALGSLGAELAVHKQLKDATPSPALRTVAMPVATSDASDPHAQLAPFSPVLASSSVRNSAAAALPAPCQHAGNALVTLANAPPTNDSKPLSQPPQTSASPLTPSIDSSPPASFLNSFVMSGTALCHSTTGCEVLDGGSKTRTPLPDFSPDILRTPPTSEHGTAAAPLGTGSDGPRSVVSRADDADERDVDVDLLPLDSSSSDSSSGSSQRSDGTADGVAEVSHAYARVLAKPSSPPPMYPNKTPTAAAFVVQPAAPTHPSANRTLSLHFSTRSDVSEGSSYGSSQMLRETRAQLQALLEEEEAAGRAKTHR”, the “soluble on expression in E. coli” value was “not soluble”. For “LYAHAVESLRHEITAVLLIAKPEDEVLLRLESPGGVVHGYGLAASQLRRLRERNIPLTVAVDKVAASGGYMMACVADKIVSAPFAVIGSVGVVAEVPNIHRLLKKHDIDVDVMTAGEFKRTVTFMGENTEKGKQKFRQELEETHQLFKQFVSENRPGLDIEKIATGEHWFGRQALALNLIDEISTSDD”, the “soluble on expression in E. coli” value was “not soluble”. For “MGSDKIHHHHHHMQSFDVVIAGGGMVGLALACGLQGSGLRIAVLEKQAAEPQTLGKGHALRVSAINAASECLLRHIGVWENLVAQRVSPYNDMQVWDKDSFGKISFSGEEFGFSHLGHIIENPVIQQVLWQRASQLSDITLLSPTSLKQVAWGENEAFITLQDDSMLTARLVVGADGAHSWLRQHADIPLTFWDYGHHALVANIRTEHPHQSVARQAFHGDGILAFLPLDDPHLCSIVWSLSPEQALVMQSLPVEEFNRQVAMAFDMRLGLCELESERQTFPLMGRYARSFAAHRLVLVGDAAHTIHPLAGQGVNLGFMDVAELIAELKRLQTQGKDIGQHLYLRRYERRRKHSAAVMLASMQGFRELFDGDNPAKKLLRDVGLVLADKLPGIKPTLVRQAMGLHDLPDWLSAGK”, the “soluble on expression in E. coli” value was “not soluble”. With “SNAMAKNKLLRMDNVSIVVESLDNAISFFEEIGLNLEGRANVEGEWAGRVTGLGSQCVEIAMMVTPDGHSRIELSRFLTPPTIADHRTAPVNALGYLRVMFTVEDIDEMVSRLTKHGAELVGEVVQYENSYRLCYIRGVEGILIGLAEELGNK” the “soluble on expression in E. coli” value was “soluble”. For “MAHHHHHHMAKAIGDGDTGDAWWANPEHLAAIDATAAAEAVVSVPHQPEKNTGTGCSSRITAMRYYMKPDTWTQTLLSDEGETARENRTDGEVPHSGSASTGAVTSSDPRGCNSDAHVHHQATSSLLSTASSVVTTTATEEASSLPAASSPLHGLPLHQLIEQHAALVRRLVQVLAPQRQTIPHVIRELCTTRVTSPSSAVASRVCVLPSMDASNAEPMQYTERDVAAAVEQLTSSHPRQPRLRELKSDGYLLMNLEGFADGKTRHKAVNRAYPALALHWPASVQQMDAMERYVDRDVVLDTRKRHPELSGEGSDKKQGQKRDRSRSSTSSNASGADEDGAHKARAPGYTSSPPSPPLGMAASPKRTAPTTSSRRFFQSLREYPRSLEHGDLHAWARGTAAQQARDCLQAATTLTQSSTSTVDGSSDAATLGPLPITNEEDVAVLRCQYDALAAAESVVEKQLRAYSDTVQELRGWYRGELCTQQFRYELEAWLRTQEESRAVLTDLYAQMHAMRYSLQRDLSNYLHLHALGVL”, the “soluble on expression in E. coli” value was “soluble”. For “MFQIIMTSTPKYSIILPTYNEKENLPICIWLIENYLKEVSHEVIIVDDASPDGTQGIAKLLQKEYGDDKILIKPRVGKLGLGTAYSHGLSFARGEFIILMDADLSHHPKFIPEMIALQHKYKLDIVTGTRYKDGGGVSGWDLKRKTISKGANFLAQFLLNPGVSDLTGSFRLYKRDILSKLIAESVSKGYVFQMEMMFRAKKSGYRIGEVPISFVDRFFGESKLGSQEIVDYAKGLLYLFAFVW”, the “soluble on expression in E. coli” value was “not soluble”. In the case of “MDALQAYGGSDSEHSDDDASMDQVAKGKSSTLLERAIVTAPDVESKSAIRQVAIVDPKTKEIKSNPKFDQLFKPESGPVNHFKSEQQRSQKNTLTGFVEPAHLNEFHFNRQIRSFDTLGYAQNPTAESGTTHFVGDVKKAEAEKGVSLFESKKTGGEKRKRVRNDDSADIDGYTGPWSRFIDEKTVAKPTPELQKQMDEIVKKRQEKSRRFKKEKEDSEQMAEESSTLHLKEAEDYQGRSFLVPPSFTGVNLREDYVPERCFVPKKLVHTYRGHNKGVNFLQWFPKSAHLFLSCSMDTKIKLWEVYDRQRVVRTYAGHKLPVREVAFNNEGTEFLSASFDRYVKLWDTETGQVKQRFHTGHVPYCLKYHPDDDKNHMFLVGMQNKKIIQWDSRSGEIVQEYDRHLQAVNSITFFDKNRRFASTSDDKSVRIWEWEIPVDTKLIQNVGLHAIPTMTKSPNDKWVVGQCMDNRIVLFQLVDDKLRFSKKKAFRGHNAAGYACNIDFSPDQSFLISGDADGKLFIWDWRTHKIVGKWKAHDSTCIAALWHPHEKSRMITAGWDGLIKMWN”, the “soluble on expression in E. coli” value is reported as “soluble”. With “MEFMSAPANAVAADDATAIALKYNQDATKSERVAAARPGLPPEEQHCANCQFMQADAAGATDEWKGCQLFPGKLINVNGWSASWTLKAG” the “soluble on expression in E. coli” value was “soluble”. In the case of “SMSDESVYKVLLLGAPGVGKSALARIFGGVEDGPEAEAAGHTYDRSIVVDGEEASLMVYDIWEQDGGRWLPGHCMAMGDAYVIVYSVTDKGSFEKASELRVQLRRARQTDDVPIILVGNKSDLVRSREVSVDEGRACAVVFDCKFIETSAALHHNVQALFEGVVRQIRLRRDSKEA”, the “soluble on expression in E. coli” value is reported as “soluble”. In the case of “RLSEIFNSPEFAESKSKLTLALGQDITGQPVVTDLGKAPHLLVAGTTGSGKSVGVNAMILSMLFKAAPEDVRMIMIDPKMLELSIYEGIPHLLAPVVTDMKLAANALNWCVNEMEKRYRLMSFMGVRNLAGFNQKIAEAAARGEKIGNPFSLTPDDPEPLEKLPFIVVVVDEFADLMMTAGKKIEELIARLAQKARAAGIHLILATQRPSV”, the “soluble on expression in E. coli” value is reported as “not soluble”. For “MSLAIRNVVFDVGNVIVKWAPQDIAQLTFGEGEESAFMATAVFKSEFWRDLNKGKYTEAEVKRALHQQLGLSSDTLEQLFFHIKNTQVLLPGTLQLMDDLLKAGYRLYALTDNVNEIVAYLKKQYGFWPKFTGAVVSSECGLLKPDPAIYQHLADSQRILPQESVFMDDMPANVEGARQQGFHAIQFVDAHQARVQLAQMGLHFKGQHFGEGHHHHHH”, the “soluble on expression in E. coli” value was “soluble”. In the case of “MGSDKIHHHHHHMTSREEFLEKLAQAGTLNLIFQLTDQCALSCRYCFAKGSHPSGGLRIADDLLDAAIRSAFDTRHHQVSFEWTGGEPFFAGIDFYRKVDRLQKKYATKPYANTIQTSGYVHDRELIAWLAGHGFRISSTIDGPPELHDFQRPVNGGGPSLGAVLATRETIIEHQGHCGCICTVTRNSLGKEGAILDYYRSLGIEAFHSNPYYYFSKNLVGDESLALDADGYAAYFIAQFNAWFEGGRKLPMPGTLNYILRSLTAGAGLKQSVCTFGGRCLTNFLAITPDGDAWLCPKFAGFDEMRLGNVGKMAITDILSDANPAMARLIDERLDAIHTCEADECRFQYLCNAGCPYYSFIASGGRNIAVKDSLCTGKQLLFEYLESVVELIDPARLPEPSPLEHA”, the “soluble on expression in E. coli” value is reported as “not soluble”. For “MTQTQPVGTLRLTIDDQGPQGQSRAVEQFHQGALRVIRPHYLDDSGQVCYTIIAIGGGYLGGDVYEQQFTIKDNAKALITTQSATKIYRTPQGPATQHTEINVGENAVLEYLADQTIAYREATYHQFTKVALHPSATFVMSEQITPGWHPDGKHFAYDEMRLHTEITDSTTGRLVLLDNLLLRPDSREGSFGWTEQYTHSGQMIVMGEGVDKQLVAELNEQLAAHPDVYGAVNFLSAPGTLLRGFIARTLSNRTEELINLHEHIASLLRGRWRGQEPVNLRKYLEHHHHHH”, the “soluble on expression in E. coli” value was “not soluble”. With “MTSAAQLTALLHLASPALPVGAFSYSQGLEAAVEARHVHDEASAARWIAEGLAVLAACEAPLWLLQYADWQAGRLDAVAERDGWFLATRETRELRLETAQMGWSLARLIAQMGWGAPAMRDALAARAAITFPTAFAAAAVALGIEARDGLTAYSFAWVENQVAAAVKAIPLGQAAGQRILFGLHAAVGQAAEDAARRAACHPPELSTFSPGLGVLSARHETQYSRLFRSLEHHHHHH” the “soluble on expression in E. coli” value was “not soluble”. With “TMNPLYSVKRAEKRRNVVLGRMLEVGKITQQQYEQAKAETVTATFYGTALEFRADYVTEMIRQEMVKRYGEDVAYNKGF” the “soluble on expression in E. coli” value was “not soluble”. With “MKTGKELKPGTVLRIDNDPWLVQKAEFTKSGRNSAIMKTKLKNLLTGYKTETVYGADDKLDDVILDRKEATLSFINGDEYTFMDTTDYTMYELNAEDIEAVLPYIEEGMEDVCEAVFFEGRLVSVELPTTISRKVVYTENAARGDTSGKVMKPAKLANGTEISVADFIQIDEWIDIDTRDNSFKGRSKKLEHHHHHH” the “soluble on expression in E. coli” value was “soluble”. For “MSTKVKKTTQLKQMLNSKDLEFIMEAHNGLSARIVQEAGFKGIWGSGLSVSAQLGVRDSNEASWTQVVEVLEFMSDASDVPILLDADTGYGNFNNARRLVRKLEDRGVAGACLEDKLFPKTNSLHDGRAQPLADIEEFALKIKACKDSQTDPDFCIVARVEAFIAGWGLDEALKRAEAYRNAGADAILMHSKKADPSDIEAFMKAWNNQGPVVIVPTKYYKTPTDHFRDMGVSMVIWANHNLRASVSAIQQTTKQIYDDQSLVNVEDKIVSVKEIFRLQRDDELVQAEDKYLPKN”, the “soluble on expression in E. coli” value was “soluble”. For “MGSDKIHHHHHHMTAVNIWKPEDNIPREILAILSKPHPNYQLAFLNIIQLLKTQRRTGWVDHGIDPCESISDHMYRMGLTTMLITDKNVDRNKCIRIALVHDFAESLVGDITPNDPMTKEEKHRREFETVKYLCESIIRPCSESASREILDDWLAYEKQTCLEGRYVKDIDKYEMLVQCFEYEQKYNGKKDLKQFLGAINDIKTDEVKKWTQSLLEDRQAFFDSLKE”, the “soluble on expression in E. coli” value was “not soluble”. With “MMKYTAVLDKPVTGNETTGSLPEPLLREALGAALRAFRADKGITLRELAETSRVSPGYLSELERGRKEVSSELLASVCHALGTSVSDVLIEAAGTMAMRSAEADLVRVS” the “soluble on expression in E. coli” value was “not soluble”.
